{"source": "paper PMC4414354", "about": "“The Pentameric Nucleoplasmin Fold Is Present in Drosophila FKBP39 and a Large Number of Chromatin-Related Proteins” (Journal of Molecular Biology, 2015)", "key": {"[1]": {"target": "the molecule itself", "assay": "SAXS; Fpr4Δloop, 1.0-4.0 mg/mL, 50 mM Hepes pH 7.5, 100 mM NaCl, 11 °C, beamline X33 (EMBL/DESY Hamburg); P5 symmetry"}, "[2]": {"target": "the molecule itself", "assay": "SEC; S200 or S75 120-mL column in 20 mM Tris-HCl pH 8.0, 150 mM (salt not given), 2 mM β-mercaptoethanol; apparent molecular weight"}, "[3]": {"target": "the molecule itself", "assay": "SANS; deuterated FKBP39 NPL, 2.0-10.0 mg/mL, 20 mM 4-morpholineethanesulfonic acid pH 6.0, 25 mM NaCl, 20 °C; bead model fitted with 5-fold symmetry"}, "[4]": {"target": "the molecule itself", "assay": "SAXS; HD2 NPL 1.0-5.0 mg/mL and FKBP39 NPL 1.0-20.0 mg/mL, 50 mM Hepes pH 7.5, 100 mM NaCl, 11 °C, ESRF BioSAXS beamline ID14eh3; FKBP39 modelled with P5, HD2 with P25 symmetry"}}, "data": [{"protein": "Fpr4 NPLΔloop (S. cerevisiae Fpr4 amino acids 1-168 with the β4-β5 loop deleted) (domain or fragment, Saccharomyces cerevisiae, UniProt Q06205 1-168, looked up, Fpr4, Saccharomyces cerevisiae, amino acids 1-58 joined to 114-168 by overlap deletion PCR; The construct contains a C-terminal unstructured tail seen in the SAXS model; also called Fpr4Δloop; Fpr4 NPL domain; source: E. coli BL21 (DE3), purified) MSDMLPLATYSLNVEPYSPTPALNFKIPVTIRITMAAIDPEPFDDDKKPSTLRIIKRNEIDDEFEECVLLTLSPKGQYQQALDITIAPEEDVQFVVTGSYTISLTGNYVKHPF", "values": [{"measurement": "stoichiometry N", "setting": "[1]", "result": 5}]}, {"protein": "FKBP39 NPL domain (N-terminal nucleoplasmin-like domain of Drosophila FKBP39, residues 1-92) (domain or fragment, Drosophila melanogaster, 3-4 additional amino acids left at the N-terminus after chymotrypsin cleavage, printed as [F]QGA: with or without the leading F; second amino acid changed from Ser to Ala for the NcoI cloning site; dipeptide from the BamHI site at the C-terminus; Deuterated or otherwise isotope-labelled samples were used for SANS and NMR; The structure was deposited at the PDB; also called N-terminal domain of …) QGAMAMFWGLNMKPERKYSQTIIKSFHISGVALDKGQEAKLYLAAEKQEYIVATVTKAIPQVALDLNFSKGDRIMFYTAGDASVSLLGYLHDIDSGS", "values": [{"measurement": "stoichiometry N", "setting": "[2]", "result": "~5"}, {"measurement": "stoichiometry N", "setting": "[3]", "result": 5}]}, {"protein": "Arabidopsis thaliana type 2 histone deacetylase HD2 NPL domain (HD2a, amino acids 1-112) (domain or fragment, UniProt Q56WH4 1-112, looked up, type 2 histone deacetylase (printed as HD2a), Arabidopsis thaliana, amino acids 1-112; also called Arabidopsis NPL construct; A thali; source: E. coli BL21 (DE3), purified; copies: 10) MEFWGVAVTPKNATKVTPEEDSLVHISQASLDCTVKSGESVVLSVTVGGAKLVIGTLSQDKFPQISFDLVFDKEFELSHSGTKANVHFIGYKSPNIEQDDFTSSDDEDVPEA", "values": [{"measurement": "stoichiometry N", "setting": "[4]", "result": 10}]}]}
